Results reported in patent US5763573A, “GTPase activating protein fragments” (Chiron Corporation, priority 1995, dated 1998).

Key:
H-ras protein = H-ras protein (Homo sapiens, UniProt P01112); test: Typical GAP assay with immunoprecipitated H-ras bound to α-32P-GTP, TLC; type: biochemical; conditions: sufficient GAP; 60 minutes at room temperature
From the text: A typical GAP assay can be carried out as follows. Approximately 0.8 micrograms of H-ras protein obtained as described by Trahey, et al., supra was bound to α-32P-GTP followed by precipitation of the complex with 13 micrograms of an anti-ras antibody, 157-181, that recognizes the carboxyl terminal end of the molecule. Specifically, 157-181 recognizes the carboxyl terminal residues at positions 157-181. Adari et al., 1988 Science, […]:518. Next, 10 micrograms of sheep-anti-mouse IgG, and 10 microliters of protein A-Sepharose beads were added. As a control, the same reactants were combined except that rat IgG replaced 157-181, and goat anti-rat IgG replaced sheep anti-mouse IgG. The pellets were washed with 20 mM tris hydrochloride, pH 7.4, containing 20 mM sodium chloride, 1 mM magnesium chloride and 1 mM DTT and resuspended in the same solution. Four microliter aliquots of the immune complex were then mixed with 10 microliters of GAP, or, as a control, buffer without GAP. After 60 minutes incubation at room temperature the Sepharose beads were washed again, and the bound nucleotides analyzed using thin layer chromatography with 1M LiCl as the solvent. […] The assay detects GAP in a semi-quantitative, dose-dependent fashion. Quantitation can be improved by scraping the relevant regions of the plate and measuring cpm in GDP by use of a gamma counter.

ras p21 protein = test: Filter assay of ras p21 hydrolysis of 32-P gamma-GTP with and without GAP; type: biochemical; conditions: FIG. 13; presence and absence of GAP; 30 minutes at room temperature
Method: The above four peptides, in the following two experiments, were tested for their abilities to inhibit the hydrolysis of GTP by ras p21 protein, in the presence and absence of GAP. The first experiment involved peptides G65, G73 and 891. It was carried out as follows: purified wild type ras p21 protein was incubated with 0.25 μM 32-P gamma-GTP in 100 mM NaPO4, pH 6.8, 0.5 mM DTT, 0.5 mM EDTA, 0.005% Na cholate, and 0.5 mg/ml BSA for 15 minutes at 30° C. The mixture was then diluted ten fold with TNM buffer (comprising 20 mM Tris-HCl, pH 7.0, 100 mM NaCl, 5 mM MgCl2). 20 μl (0.05 μg of p21) of this mixture was then combined with 2 μl of the peptide in 25 mM NaOAc, pH 5.5 and incubated for 5 minutes at room temperature. The GAP assay was initiated by the addition of 12 ng GAP in 5 μl TNM buffer with 1 mg/ml BSA or 5 μl TNM BSA buffer for the GAP independent reactions, and the resulting mixture was incubated for 30 minutes at room temperature. The samples were then filtered through nitrocellulose membranes and washed three times with cold TNM. The filters were dried and their radioactivity counted. […] In the presence of GAP, the radioactive ras p21-GTP complex is hydrolyzed to GDP and ras p21 protein, thus reducing the resulting amount of radioactive p21-GTP bound to the filter and consequently, the radioactive counts detected. […]

H-ras protein, sequence (P01112 whole entry): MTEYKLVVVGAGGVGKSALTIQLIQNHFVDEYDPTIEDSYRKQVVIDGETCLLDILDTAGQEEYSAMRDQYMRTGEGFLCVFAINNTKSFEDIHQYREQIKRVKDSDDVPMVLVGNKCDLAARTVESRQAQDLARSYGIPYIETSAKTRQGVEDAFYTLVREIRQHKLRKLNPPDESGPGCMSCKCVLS

Substance | hydrolysis of GTP to GDP (H-ras protein) | effect on hydrolysis of GTP (radioactive counts of ras p21-GTP complex on filter) (ras p21 protein)
GAP: guanine triphosphatase activating protein purified from human placenta, about 115,000-120,000 daltons | near complete hydrolysis | –
peptide G73: peptide corresponding to amino acids positions 975-990 of the full length GAP (GNVPELPDTTEHSRTD; UniProt P20936 975-990, looked up, fragment) | – | do not affect
